Biological target: T1, FLAG-CRY1 (Arabidopsis thaliana, UniProt Q43125 1-681)
T1 construct: CRYPTOCHROME 1 (CRY1), Arabidopsis thaliana; source: E. coli-purified
Assay: pull-down; in vitro pull-down; MBP or MBP-TCP17 incubated with FLAG-CRY1 for 2 h at 4°C; immunoblot with anti-MBP or anti-FLAG
Settings: both partners purified

T1 sequence (Q43125 whole entry): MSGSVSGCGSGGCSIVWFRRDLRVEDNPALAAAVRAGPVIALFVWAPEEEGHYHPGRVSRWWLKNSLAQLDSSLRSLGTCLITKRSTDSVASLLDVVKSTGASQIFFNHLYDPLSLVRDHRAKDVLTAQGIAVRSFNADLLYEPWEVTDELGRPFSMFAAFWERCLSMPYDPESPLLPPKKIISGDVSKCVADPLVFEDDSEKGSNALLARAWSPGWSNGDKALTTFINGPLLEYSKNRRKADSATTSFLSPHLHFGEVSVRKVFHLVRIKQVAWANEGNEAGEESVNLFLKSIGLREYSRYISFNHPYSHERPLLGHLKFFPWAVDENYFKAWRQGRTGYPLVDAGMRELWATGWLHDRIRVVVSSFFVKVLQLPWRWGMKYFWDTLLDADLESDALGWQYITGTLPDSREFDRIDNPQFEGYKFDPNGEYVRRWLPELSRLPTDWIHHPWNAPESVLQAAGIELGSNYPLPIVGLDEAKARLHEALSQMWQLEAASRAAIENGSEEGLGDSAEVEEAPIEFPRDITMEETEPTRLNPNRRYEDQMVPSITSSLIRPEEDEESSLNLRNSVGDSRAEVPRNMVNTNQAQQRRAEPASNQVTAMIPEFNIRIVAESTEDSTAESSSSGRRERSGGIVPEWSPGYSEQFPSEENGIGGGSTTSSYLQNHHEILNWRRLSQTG

B1: MBP-TCP17 (natural protein, Arabidopsis thaliana, UniProt Q9LEZ9 1-242, looked up)
chain: MGIKKEDQKSSLSLLTQRWNNPRIVRVSRAFGGKDRHSKVCTVRGLRDRRIRLSVMTAIQVYDLQERLGLSQPSKVIDWLLEVAKNDVDLLPPLQFPPGFHQLNPNLTGLGESFPGVFDLGRTQREALDLEKRKWVNLDHVFDHIDHHNHFSNSIQSNKLYFPTITSSSSSYHYNLGHLQQSLLDQSGNVTVAFSNNYNNNNLNPPAAETMSSLFPTRYPSFLGGGQLQLFSSTSSQPDHIE
notes: TCP17, Arabidopsis thaliana; also called MBP-tagged TCP17; source: E. coli expressed and purified
B1: binds.
